Measured values as given in patent US20240261333A1 (published 2024).

T1: CCT3 (human, UniProt P49368 1-545)
T1 construct: also called NP_005989.3
T1 sequence (looked up): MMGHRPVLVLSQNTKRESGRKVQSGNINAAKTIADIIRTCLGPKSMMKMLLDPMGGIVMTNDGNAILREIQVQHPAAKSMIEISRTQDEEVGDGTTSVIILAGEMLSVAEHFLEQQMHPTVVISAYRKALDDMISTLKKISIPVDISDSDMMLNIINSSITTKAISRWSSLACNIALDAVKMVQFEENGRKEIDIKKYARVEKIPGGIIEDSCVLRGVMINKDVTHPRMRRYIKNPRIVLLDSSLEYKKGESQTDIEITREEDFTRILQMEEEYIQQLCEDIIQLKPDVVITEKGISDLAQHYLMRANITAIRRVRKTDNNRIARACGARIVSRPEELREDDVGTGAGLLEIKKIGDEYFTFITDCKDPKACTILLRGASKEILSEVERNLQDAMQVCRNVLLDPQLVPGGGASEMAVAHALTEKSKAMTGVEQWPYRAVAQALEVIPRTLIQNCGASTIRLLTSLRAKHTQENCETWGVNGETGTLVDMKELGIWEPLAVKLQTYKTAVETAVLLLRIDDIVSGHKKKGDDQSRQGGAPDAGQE

T2: HNRNPM (human, UniProt P52272 2-730)
T2 construct: also called NP_005959.2 (+1)
T2 sequence (looked up): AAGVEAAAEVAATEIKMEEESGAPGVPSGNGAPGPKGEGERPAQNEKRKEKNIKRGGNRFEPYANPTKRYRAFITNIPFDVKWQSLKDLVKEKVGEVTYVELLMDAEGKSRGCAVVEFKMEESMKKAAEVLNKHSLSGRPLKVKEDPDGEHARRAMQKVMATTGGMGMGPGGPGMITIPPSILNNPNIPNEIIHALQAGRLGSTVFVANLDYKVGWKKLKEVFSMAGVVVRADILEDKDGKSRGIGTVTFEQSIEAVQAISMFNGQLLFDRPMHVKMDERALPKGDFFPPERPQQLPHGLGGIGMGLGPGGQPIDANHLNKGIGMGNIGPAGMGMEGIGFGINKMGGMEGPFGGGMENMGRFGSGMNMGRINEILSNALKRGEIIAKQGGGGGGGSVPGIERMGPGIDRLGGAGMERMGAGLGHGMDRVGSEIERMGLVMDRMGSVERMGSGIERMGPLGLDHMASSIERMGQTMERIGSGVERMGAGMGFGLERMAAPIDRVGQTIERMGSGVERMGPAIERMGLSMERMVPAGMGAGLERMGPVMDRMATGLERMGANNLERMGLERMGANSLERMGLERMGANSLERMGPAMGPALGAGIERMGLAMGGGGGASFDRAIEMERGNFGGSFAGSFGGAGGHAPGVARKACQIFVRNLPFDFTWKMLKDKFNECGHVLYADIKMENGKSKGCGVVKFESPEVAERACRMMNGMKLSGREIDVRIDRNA

T3: JUP (human, UniProt P14923 1-745)
T3 construct: also called NP_001339702.1
T3 sequence (looked up): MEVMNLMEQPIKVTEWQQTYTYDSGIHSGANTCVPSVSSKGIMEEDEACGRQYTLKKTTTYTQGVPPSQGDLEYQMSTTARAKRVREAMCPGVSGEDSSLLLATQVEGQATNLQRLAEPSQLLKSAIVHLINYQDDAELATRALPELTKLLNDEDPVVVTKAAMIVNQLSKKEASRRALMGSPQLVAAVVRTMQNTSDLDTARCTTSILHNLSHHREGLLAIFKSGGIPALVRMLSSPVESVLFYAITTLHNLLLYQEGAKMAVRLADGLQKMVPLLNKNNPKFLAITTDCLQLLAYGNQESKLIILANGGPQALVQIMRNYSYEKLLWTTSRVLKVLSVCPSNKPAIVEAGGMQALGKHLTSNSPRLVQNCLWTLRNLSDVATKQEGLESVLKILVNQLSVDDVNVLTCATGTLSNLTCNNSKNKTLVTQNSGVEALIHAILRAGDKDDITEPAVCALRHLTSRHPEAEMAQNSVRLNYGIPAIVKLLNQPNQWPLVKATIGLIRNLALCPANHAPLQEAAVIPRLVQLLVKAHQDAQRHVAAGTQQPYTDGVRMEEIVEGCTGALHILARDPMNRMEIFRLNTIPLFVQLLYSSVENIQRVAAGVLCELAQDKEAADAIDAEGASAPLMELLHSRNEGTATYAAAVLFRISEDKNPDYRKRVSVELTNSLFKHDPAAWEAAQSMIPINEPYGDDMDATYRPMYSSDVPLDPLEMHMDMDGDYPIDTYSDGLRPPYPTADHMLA


Legend:
Experiment in all cases: co-IP with anti-FLAG, N-FLAG B3GNT2, mass spectrometry
CCT3 = molecular target: T1, CCT3
Experimental: (§1) Cells were plated in 10-cm cell culture dishes and grown to 60-80% confluency. For each condition, two biological replicates were harvested for co-IP. Cells were washed with PBS and 4 mL of lysis buffer (20 mM HEPES, 1% Triton X-100, 150 mM NaCl, 1 mM EDTA, and 10% glycerol) containing protease inhibitor cocktail was added. Cells were scraped and lysate was incubated at 4° C. under rotary agitation for 1 h. Lysate was centrifuged at 14,000×g for 10 min at 4° C. Supernatant was transferred to a new tube and an aliquot was taken as the input. […] For Western blots, 10 μg/mL Chicken Anti-FLAG (Aves labs ET-DY100) and IgY control (R&D Systems AB-101-C) antibodies were biotinylated (Thermo Fisher Scientific 90407) and added to the respective conditions. Lysates with antibodies were incubated at 4° C. under rotary agitation overnight. For each mL of lysate, 50 μL of Pierce Protein A/G Magnetic Beads (Mass spectrometry; Thermo Fisher Scientific 88803) or Pierce Streptavidin Magnetic Beads (Western blot; Thermo Fisher Scientific 88817) was washed twice with lysis buffer. Lysates with antibodies were added to the beads and incubated at 4° C. under rotary agitation for 4 h. Beads were washed with lysis buffer 3 times and resuspended in lysis buffer for storage.
(§2) Magnetic beads were resuspended in 100 mM Tris pH 7.8, reduced, alkylated and digested with trypsin at 37° ° C. overnight. This solution was subjected to solid phase extraction to concentrate the peptides and remove unwanted reagents followed by injection onto a Shimadzu HPLC with fraction collector. Eight fractions were collected and after concentration were injected on a Waters NanoAcquity HPLC equipped with a self-packed Aeris 3 μm C18 analytical column 0.075 mm by 20 cm, (Phenomenex). Peptides were eluted using standard reverse-phase gradients. The effluent from the column was analyzed using a Thermo Orbitrap Elite mass spectrometer (nanospray configuration) operated in a data dependent manner for 54 minutes. The resulting fragmentation spectra were correlated against the known database using Proteome Discover 1.4 (Thermo Fisher Scientific).

PKM = molecular target: T4, PKM (human, UniProt P14618 2-531, limits assumed)
T4 construct: also called NP_001193725.1 (+3)
T4 sequence (P14618 2-531 limits assumed): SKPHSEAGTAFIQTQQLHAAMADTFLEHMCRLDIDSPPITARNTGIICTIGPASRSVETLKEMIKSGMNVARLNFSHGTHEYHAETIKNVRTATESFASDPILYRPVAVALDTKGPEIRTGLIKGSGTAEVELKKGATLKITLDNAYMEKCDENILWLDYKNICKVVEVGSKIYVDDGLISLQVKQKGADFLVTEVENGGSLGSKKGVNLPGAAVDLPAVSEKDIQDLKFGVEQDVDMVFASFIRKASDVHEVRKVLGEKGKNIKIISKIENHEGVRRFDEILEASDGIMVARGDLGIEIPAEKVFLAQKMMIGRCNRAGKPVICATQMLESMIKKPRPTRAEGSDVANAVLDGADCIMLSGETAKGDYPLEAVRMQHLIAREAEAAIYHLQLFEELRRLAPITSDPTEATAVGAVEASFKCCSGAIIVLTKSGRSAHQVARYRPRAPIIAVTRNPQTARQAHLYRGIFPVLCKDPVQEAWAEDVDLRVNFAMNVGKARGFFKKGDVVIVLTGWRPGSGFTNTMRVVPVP
Experimental: as §1, §2

HNRNPM = molecular target: T2, HNRNPM
Experimental: as §1, §2

JUP = molecular target: T3, JUP
Experimental: as §1, §2

co-IP mass spectrometry count (CCT3)	co-IP mass spectrometry count (PKM)	co-IP mass spectrometry count (HNRNPM)	co-IP/MS count, N-term FLAG (JUP)	Binder
0	3	6	–	N-terminal FLAG tagged B3GNT2 (enzyme, human, UniProt Q9NY97 1-397, looked up, FLAG-tagged ORF overexpressed in cells; pulled down from lysate with mouse anti-FLAG; also called N-FLAG B3GNT2; N-term FLAG; not shown: N-terminal FLAG tag) MSVGRRRIKLLGILMMANVFIYFIMEVSKSSSQEKNGKGEVIIPKEKFWKISTPPEAYWNREQEKLNRQYNPILSMLTNQTGEAGRLSNISHLNYCEPDLRVTSVVTGFNNLPDRFKDFLLYLRCRNYSLLIDQPDKCAKKPFLLLAIKSLTPHFARRQAIRESWGQESNAGNQTVVRVFLLGQTPPEDNHPDLSDMLKFESEKHQDILMWNYRDTFFNLSLKEVLFLRWVSTSCPDTEFVFKGDDDVFVNTHHILNYLNSLSKTKAKDLFIGDVIHNAGPHRDKKLKYYIPEVVYSGLYPPYAGGGGFLYSGHLALRLYHITDQVHLYPIDDVYTGMCLQKLGLVPEKHKGFRTFDIEEKNKNNICSYVDLMLVHSRKPQEMIDIWSQLQSAHLKC
–	–	–	47	N-terminal FLAG tagged B3GNT2 (enzyme, human, UniProt Q9NY97 1-397, looked up, FLAG-tagged ORF overexpressed in A375 cells; pulled down from the lysate with mouse anti-FLAG; also called N-FLAG B3GNT2; N-term FLAG; not shown: N-terminal FLAG tag) MSVGRRRIKLLGILMMANVFIYFIMEVSKSSSQEKNGKGEVIIPKEKFWKISTPPEAYWNREQEKLNRQYNPILSMLTNQTGEAGRLSNISHLNYCEPDLRVTSVVTGFNNLPDRFKDFLLYLRCRNYSLLIDQPDKCAKKPFLLLAIKSLTPHFARRQAIRESWGQESNAGNQTVVRVFLLGQTPPEDNHPDLSDMLKFESEKHQDILMWNYRDTFFNLSLKEVLFLRWVSTSCPDTEFVFKGDDDVFVNTHHILNYLNSLSKTKAKDLFIGDVIHNAGPHRDKKLKYYIPEVVYSGLYPPYAGGGGFLYSGHLALRLYHITDQVHLYPIDDVYTGMCLQKLGLVPEKHKGFRTFDIEEKNKNNICSYVDLMLVHSRKPQEMIDIWSQLQSAHLKC
